Data from the DeepSol protein solubility set.

Assay: soluble on expression in E. coli; label from the status in PepcDB or PDB records

Row | Sequence | soluble on expression in E. coli
1 | MQICQNPSCSNPFNPDGNRFCMSCGQSNFGKLLRNRYRVLGLLGEGGFSKTYAAEDADRLDAPCVIKQFFPQIQGTGQRSKAAEFFKEEAFRLYELGENHTQIPRLLAYFEQGSSLYLVQEFIKGLTLLQEVQQEPFNEEKIRQLLIDLLPVLDFVHFHHVIHRDIKPENIIRRDGDGKLVLIDFGGAKQVTQTSIARQATAIYTLGYAPTEQMAGFACHASDLYALGVTCVRLLTQCLPQQNLYGHIDDGLYDPMNGKWLWQEYLQDRGITISENLSQILDKLLKHLPSERYQSAAEVLHDLQVFTAIVEETQILPNTQTTLVPLAPATQRTKRPLPPLQTFEYEVVTVDTAGRIVNRDRTNTQILVEQLNKDITLEMLSIPGGAYLMGSPNFEGDADERPQHQVAIAPFFMGKYPVTQAQWRAVAGLPKIKQALNPYPSKYKGQNRPVENVSWHEVLEFCARLSEKTGREYRLPSEAEWEYACRAGTTTSFHFGETITPDLANFSDSDIHNIEAKTRYRKETTDVGNFRVANAFGLYDMHGLVWEWCADPWHNNYNGAPTDGSVWEAGGDIYRRVLRGGSWNFGAELCRSASRSWNESDGGLRICGFRVVFSAGLEHHHHHH | soluble
2 | MSLENVDPFDIIRQFRSVIAKTSLQASSNIEGLDTVWNSDLVLEANFWHLVEILLSFRTSQEFLDKESSISSKPYNSSIIFEKELLQKDKNLYQIWLIIVWIEGNFPFVEKPSNIPSSKWTNTLVTSGLMSSDLDYPLRDCSVVINDKDKADDHVFYKYVYELLLCGNYDQIFEECKLSDNITLNMIMCGMQEYVDPSIDVQLKDEFEVQQGVKKHSLWRRAVYSLSQNDKLDKYERAIYSYLAGDIPNDEVLQTLNWDSELLVYLNQILKIEVENYLLQNGKVNNEGHHHHHH | soluble
3 | MQEEVNQKTVALSIRTTKLTGKVLAAALGKVVRALQKHHRKALTPQGRQSVKKLMNHYGGKSAMPYVGAPKDFDRIAKEFHVDYAFHKVSPGHYLLFFKANQADAITAAFQKYSAKVLNKEQDKASILGQLRKFTEQIRTQAKEKQRTREAVKDGR | not soluble
4 | MEVITFESEAYKALVGKIEKIAGYVAEAQLPSEEKKETWLDSNQLAEALGISTRTLQRLRDENLISYSMLRGRCMYKLSEVERCLEERTIRCKPQTLEDFRKNYLTRTGNDKKG | not soluble
5 | MGSDKIHHHHHHMGNTQWQRLLQIEIHDKNGKNRVLLRADSGRLDRLEIHFTAPFSDSPNPSEVSVTIYNLNKKSIDFIKKGNPVYIHAGYAGTSNGVITSGTIAEVKPSVLNGVDRATTFTFLEGKDYSEQKEVNITFNNGTDAHTIINRVAREANIPLSEIKLKNNKIYGSGYTADGQAMMVLEEISKACDTSLYFKRGQLVIKNFRDGNKERYRLSPETGLINQPTKVESHDYTGWSVECLLQHKITTGTAVYIDSKNVKGNFYVKNGQHSYDGSRFVTTCEVVT | not soluble
6 | MNIAKLIDHTILKANTTKEDVMKVIEEAKEYKFASVCINPTWVKLAAEELAGHDVDVCTVIGFPLGASTTETKAFETKDAIAKGATEVDMVINVGALKDGDNELVEKDIYEVVQAAKGKALVKVIIETCLLTDEEKVRACELSVKAGADFVKTSTGFSTGGATAEDIALMRKTVGPNVGVKASGGVRTREDAEKMVAAGASRVGASASVAIVLNDAKGATDNY | not soluble
7 | MSLKAVTQCSQFFHEVSLPHLKPETTYYYRIPAANGTTESDILSFTTARAPGDKRSFTVAVLNDMGYTNAQGTHRQLLKAANEGAAFAWHGGDLSYADDWFSGILPCADDWPVCYNGTSTQLPGGGPIPEEYKQPLPQGETANQGGPQGGDMSVLYESNWDLWQQWMTNLTVKIPHMVMPGNHESACAEFDGPGNPITAYLNEGIPNGTWPAENLTYYSCPPSQRNFTAFQHRFHMPGKETGGVGNFWYSFDYGLAHFVSLDGETDFANSPFSTFERDLTGNETHPRPEETETTDSGPFGTIDGDRYDDNTAYAQYQWLKRDLASVDRTKTPWVFVMSHRPMYSSAYSSYQTNVRNAFENLLLQYGVDAYLSGHIHWYERMFPMTANGTIDESSIADNHTYTTNSGKSMTHIINGMAGNIESHSWFDEGEGLTEITAKLDRTHFGFSKLTVVNETVVNWEFVKGDDGSTGDWLTLVKGETCTINEGHHHHHH | not soluble
8 | MGSDKIHHHHHHMGVQETKIYPINTGWLEADLGTYIFWKGPAGQKIWNPVYCHYVDTGTHKILIDTGLCDEERATKYHHKCDKRGCLQVHEHLEQKLGVHPDEIDAVVFTHLHWDHVQNMKEFKNARYIAPKAEIEMAFNPLPLYYRTYESGYLGIEPAYTGCVFEAVEDECEVLPGITMFHTPGHSVGHMAVTVATSAGDIVVAGDAIFQERNMEPNEAEGWRYWVPARFVNSYEGWKSVEELDKRADYILACHDKVANARSNVFPYEGMPIRKRRQHIPGFKFYFGDMPAGATDKAAPALTADEAKEYLANLVPPTPD | not soluble
9 | KRFGWTNELMFLFAPIPWSRLPYHSIGYRASGRSYARKEHKPFRYNGFSPGIGINSCLWWKVSVRDEYIFRIGLNVGYEYMDQLYAYRHFKVNEEKPLSSLSQRLKHIGHIGLNFALSLN | not soluble
10 | MGSDKIHHHHHHMSQSKPLFPLNAWYAVAWDHEVKHALTPRKLCNLDVVLYRTTAGAVVALEDACWHRLVPLSMGKLRGDDVVCGYHGLVYNAQGRCVHMPSQETINPSACVRGFPVAEKHRYVWVWPGDPAQADVALIPDLHWSHDPAWAGDGRTIHAKCDYRLVLDNLMDLTHETFVHGSSIGQDEVAEAPFEVVHGDRTVTVSRWMHNIDPPPFWAGQIARHLNYHGKVDRWQIIHFEAPGTIAIDVGVAITGTGAPQGDRSQGVNGFVLNTITPETDTTCHYFWAFMRNYALHDQSLTTLTREGVTGVFGEDEAVLEAQQRAIEAHPDHAFYNLNVDAGGMWARRVIDRLIAREQRAGDLSLRMVG | not soluble
11 | MGSDKIHHHHHHSQGKQISGSSNYITKNIKVGSFDQIKSMSSSDIVYTQKQGAPTVQIYGPDNIVELMETSVSGRTLTIKFKKNTSIRNSGKLEIRVSSPSLKHLSIYGSGNTTFTNGIKSHDELQMSIYGSGNISGNSFSCTKLAARIYGSGNVNLKRISTSDTQVNISGSGNVLLDGKSTEAEYHIAGSGDINATELKVENVNARISGSGSIRCYATENLTGGVSGSGNVAYKGNPQINFSKRGLQKL | not soluble
12 | MLKPETIHISGPAGILETIHIPSEQVPARGVAVINHPNPLQGGTNTNKVIQTAAKALSKLGFHCYLPNLRGVGGSGGTHDYGRGETQDCLAVIDYARAQHPEAPEFALSGFSFGGYVATFAAQARTPDLLLLIGAAVCHYTDRPEPSAVPNVAKTLMIHGAEDEVVEIGKALKWAEPQDLPVITIAGSTHFFHGKLIVLRDTILRFAPVCLNG | not soluble
13 | MAHHHHHHMSGRAGRRGLDRVGVVIAMVDEAVEPETLKQLTGGGADVLNSSFHLTYNMVLNLLRVEDVDPEFMMHRSFAQFQRLRNRPVLEKRAEALTEEIESIHVEHEEVFRQFTLCQELLANRRKQLADILKQPTFLKRFTHSGRLLRIRRAADDVLFNWGICRAFHAKVPNADPKSPSEFSVDVAVICLKANAAKPTSLLPCHVNDFTTSTADLYTLTFDFTDIEGVARFRVNLPAEPDTESGRAQMVQTLSKLHRQYDDKVPLLTAEEMGVDDPQFEKLRVQVERLEAQLAENEFVQNPTKELESDFERFTHRAKLEKELNDIREELNQASRAIFSEELKQMMRVLRRLDYIDKDNVILRKARVACEITTTDENEILLTELLFKGVLNSMETEMIVALMSCLVNVHRTPDGFSLPEEFQQPLKELNEIVSRIATVSIESGVLQEGGVGVERTMPSLMEVTYMWAKGAKFVDIMSKTSAYEGEIVRMMRRLEEQLRQMAGAARSPAIGSMELHDKFLKGIQLIKRDIVFVSSLYL | not soluble
14 | VSAASLSKSAPAEPQPGPPQPAAGPQALPAIGGLTPFSSVDWPGQLAAVVFIAGCPWRCHYCHNPHLQERARGLDWREVLDFLGRRRNLLDAVVFSGGEPLSEPRLPQLIDAARALGLRIGLHTGGIYPARFAEVLPRLDWVGLDIKTTAPRYDALTGRRGSAAPVDACLDLLLRSHCAFECRTTWHPDWLPEPQLLALAQSLCSRGVKHYAIQAYRSAPGTLATALPSEATQHALAACFSSFSCR | soluble
